Test [1] addresses acetylcholine receptor. The experiment in a line: SPR, receptor immobilised on chip, peptide at 10 µM. (In general: In SPR one partner is held on a chip, and binding of the other changes the refractive index at the surface.)
The target of test [2] is acetylcholine receptor. In words: SPR, AchR immobilized on CM5 chip, peptide 10 µM.
Test [3] has as its target acetylcholine receptor. In words: SPR, AchR immobilized on chip.

We go through 71 molecules from US20250011363A1, “OPTIMIZED SHORTENED PEPTIDE THAT BINDS TO ACETYLCHOLINE RECEPTOR, AND USE THEREOF” (SKINMED CO., LTD., priority 2021, published 2025).

KWYTRK [6mer-2-478] returned a Binding affinity with acetylcholine receptor [1] of 145 RU.
As to KVFRKK [6mer-2-252], the Binding affinity (RU) with acetylcholine receptor [2] is 148 RU.
As to RRFSKR [6mer-2-244], the Binding affinity (RU) with acetylcholine receptor [2] amounted to 139 RU.
For the molecule KWILKR [6mer-2-262], the Binding affinity (RU) with acetylcholine receptor [2] stood at 142 RU.
Consider RSQTKR [6mer-2-234], for which the Binding affinity (RU) in the test with acetylcholine receptor [2] is 142 RU.
On the same count and under the same terms, the same measure for RRRRRK [6mer-2-238]: 142 RU.
As for KLYSRR [6mer-2-267], the Binding affinity (RU) with acetylcholine receptor [2] was 141 RU.
Take RRFCKR [6mer-2-260]: the Binding affinity (RU) in the test with acetylcholine receptor [2] was 142 RU.
Take RSFSKR [6mer-2-468]: in the test with acetylcholine receptor [1], the Binding affinity was 133 RU.
In the test with acetylcholine receptor [2], RGVSKR [6mer-2-219] yielded a Binding affinity (RU) of 153 RU.
In the test with acetylcholine receptor [1], RRFTKK [6mer-2-480] showed a Binding affinity of 147 RU.
As to RWQQRR [6mer-2-474], the Binding affinity with acetylcholine receptor [1] amounted to 128 RU.
KVYSKR [6mer-2-220]: the Binding affinity (RU) with acetylcholine receptor [2] was 135 RU.
RWYTKK [6mer-2-261] gave a Binding affinity (RU) with acetylcholine receptor [2] of 121 RU.
As for KRFCRR [6mer-2-475], the Binding affinity with acetylcholine receptor [1] came out at 139 RU.
Turning to KWQQKK [6mer-2-236], the Binding affinity (RU) with acetylcholine receptor [2] came to 131 RU.
The molecule RLFLKR [6mer-2-224] yielded a Binding affinity (RU) with acetylcholine receptor [2] of 148 RU.
Take KVYRRK [6mer-2-488]: the Binding affinity with acetylcholine receptor [1] amounted to 146 RU.
Regarding KWISKK [6mer-2-246], the Binding affinity (RU) with acetylcholine receptor [2] came to 123 RU.
The same measure, in the same setting: the figure for KLRSRR [6mer-2-253] is 145 RU.
As for RQRYKK [6mer-2-481], the Binding affinity with acetylcholine receptor [1] came out at 131 RU.
Regarding RSYTRR [6mer-2-248], the Binding affinity (RU) with acetylcholine receptor [2] came out at 154 RU.
RSRLRR [6mer-2-472] had a Binding affinity in the test with acetylcholine receptor [1] of 148 RU.
Turning to KGYQKK [6mer-2-247], in the test with acetylcholine receptor [2], the Binding affinity (RU) worked out at 146 RU.
The same measure, in the same setting: the figure for KQVRKK [6mer-2-221] is 153 RU.
RRYLKK [6mer-2-483]: the Binding affinity with acetylcholine receptor [1] came out at 121 RU.
Turning to KGQCKK [6mer-2-228], in the test with acetylcholine receptor [2], the Binding affinity (RU) was found to be 141 RU.
Take KLVRKK [6mer-2-235]: the Binding affinity (RU) in the test with acetylcholine receptor [2] was determined as 136 RU.
RQICKK [6mer-2-268] had a Binding affinity (RU) in the test with acetylcholine receptor [2] of 139 RU.
In the test with acetylcholine receptor [2], KQLTRR [6mer-2-223] registered a Binding affinity (RU) of 142 RU.
KGISKK [6mer-2-231]: the Binding affinity (RU) with acetylcholine receptor [2] was 144 RU.
Turning to RLRRKK [6mer-2-255], the Binding affinity (RU) in the test with acetylcholine receptor [2] stood at 139 RU.
KSQTKR [6mer-2-251] came in with a Binding affinity (RU) with acetylcholine receptor [2] of 142 RU.
Regarding RVVYRK [6mer-2-222], the Binding affinity (RU) with acetylcholine receptor [2] is 127 RU.
On the same count and under the same terms, the same measure for RWQTKK [6mer-2-266]: 131 RU.
Molecule RSRTRR [6mer-2-477] yielded a Binding affinity with acetylcholine receptor [1] of 135 RU.
For the molecule KSQQKR [6mer-2-256], in the test with acetylcholine receptor [2], the Binding affinity (RU) came out at 142 RU.
KSQLKR [6mer-2-264] had a Binding affinity (RU) in the test with acetylcholine receptor [2] of 127 RU.
For the molecule RGQYKK [6mer-2-239], the Binding affinity (RU) in the test with acetylcholine receptor [2] was 125 RU.
For KWRLKK [6mer-2-479], the Binding affinity with acetylcholine receptor [1] is 154 RU.
KQFTRK [6mer-2-232] displayed a Binding affinity (RU) in the test with acetylcholine receptor [2] of 135 RU.
KWISRR [6mer-2-471]: in the test with acetylcholine receptor [1], the Binding affinity amounted to 136 RU.
Consider KRIQRR [6mer-2-254], for which the Binding affinity (RU) with acetylcholine receptor [2] worked out at 148 RU.
In the case of KRVLKR [6mer-2-243], the Binding affinity (RU) with acetylcholine receptor [2] stood at 148 RU.
For KWRQKR [6mer-2-233], the Binding affinity (RU) in the test with acetylcholine receptor [2] and with acetylcholine receptor [3] was 190 RU throughout.
Consider RRRCRK [6mer-2-240], for which the Binding affinity (RU) in the test with acetylcholine receptor [2] was 142 RU.
Consider KLQRRK [6mer-2-227], for which the Binding affinity (RU) with acetylcholine receptor [2] is 147 RU.
KGIRKK [6mer-2-476]: the Binding affinity with acetylcholine receptor [1] was 148 RU.
Regarding RRICKR [6mer-2-263], the Binding affinity (RU) with acetylcholine receptor [2] was determined as 145 RU.
For KRIYRR [6mer-2-258], the Binding affinity (RU) with acetylcholine receptor [2] was 125 RU.
As to KRFCRK [6mer-2-257], the Binding affinity (RU) with acetylcholine receptor [2] is 144 RU.
In the case of RLVYKR [6mer-2-237], the Binding affinity (RU) with acetylcholine receptor [2] worked out at 123 RU.
In turn, RWQSKK [6mer-2-229] showed a Binding affinity (RU) with acetylcholine receptor [2] of 127 RU.
For the molecule KRLLRR [6mer-2-225], the Binding affinity (RU) with acetylcholine receptor [2] was found to be 145 RU.
On to RRQTRK [6mer-2-265], for which the Binding affinity (RU) with acetylcholine receptor [2] was 135 RU.
RGRLRK [6mer-2-473]: in the test with acetylcholine receptor [1], the Binding affinity came to 131 RU.
The molecule KQQSKK [6mer-2-486] had a Binding affinity in the test with acetylcholine receptor [1] of 121 RU.
KRRRKK [6mer-2-250]: in the test with acetylcholine receptor [2], the Binding affinity (RU) came to 145 RU.
KSQRRR [6mer-2-242] displayed a Binding affinity (RU) with acetylcholine receptor [2] of 135 RU.
As to RSLSKR [6mer-2-245], in the test with acetylcholine receptor [2], the Binding affinity (RU) was found to be 135 RU.
Regarding RQIQKR [6mer-2-485], in the test with acetylcholine receptor [1], the Binding affinity came to 148 RU.
In the test with acetylcholine receptor [1], KGQTRR [6mer-2-482] had a Binding affinity of 154 RU.
KSYTKR [6mer-2-487] had a Binding affinity with acetylcholine receptor [1] of 121 RU.
As for RWIQRR [6mer-2-230], the Binding affinity (RU) with acetylcholine receptor [2] was 135 RU.
Take RLLCKR [6mer-2-226]: the Binding affinity (RU) with acetylcholine receptor [2] was 154 RU.
Same read-out and setting: the figure for RVQSKR [6mer-2-259] is 128 RU.
KQLTKR [6mer-2-241]: the Binding affinity (RU) with acetylcholine receptor [2] stood at 135 RU.
Take RLRRRK [6mer-2-470]: in the test with acetylcholine receptor [1], the Binding affinity turned out to be 153 RU.
With RWYTKR [6mer-2-484], the Binding affinity in the test with acetylcholine receptor [1] stood at 148 RU.
In turn, RGLRKR [6mer-2-249] registered a Binding affinity (RU) with acetylcholine receptor [2] of 136 RU.
Take RLRTKK [6mer-2-469]: the Binding affinity with acetylcholine receptor [1] came out at 153 RU.
